# Laboratory results from publication PMC12429950, “A chimeric RNA consisting of siRNA and aptamer for inhibiting dengue virus replication”.
# B1: DENV-Apt (XNA)
# RNA: GGGUCUUGUUUCUUCUCUGUGUGUAAUUUGUUUUACUGGGGGGUUAACCUAACAAGUGCACACUCGUCACACACUCACAUC
# modifications: 2'-fluoro C and U
# Experiments:
# [1] = target: T1, DENV-1 VLP (envelope protein) (Dengue virus type 1, UniProt P17763 281-775); assay: SPR; response lower than DENV-Apt_41; conditions: protein: commercial; predicted stem-loop
# [2] = target: T1, DENV-1 VLP (envelope protein); assay: SPR; conditions: protein: commercial; predicted stem-loop
# T1 sequence (P17763 281-775): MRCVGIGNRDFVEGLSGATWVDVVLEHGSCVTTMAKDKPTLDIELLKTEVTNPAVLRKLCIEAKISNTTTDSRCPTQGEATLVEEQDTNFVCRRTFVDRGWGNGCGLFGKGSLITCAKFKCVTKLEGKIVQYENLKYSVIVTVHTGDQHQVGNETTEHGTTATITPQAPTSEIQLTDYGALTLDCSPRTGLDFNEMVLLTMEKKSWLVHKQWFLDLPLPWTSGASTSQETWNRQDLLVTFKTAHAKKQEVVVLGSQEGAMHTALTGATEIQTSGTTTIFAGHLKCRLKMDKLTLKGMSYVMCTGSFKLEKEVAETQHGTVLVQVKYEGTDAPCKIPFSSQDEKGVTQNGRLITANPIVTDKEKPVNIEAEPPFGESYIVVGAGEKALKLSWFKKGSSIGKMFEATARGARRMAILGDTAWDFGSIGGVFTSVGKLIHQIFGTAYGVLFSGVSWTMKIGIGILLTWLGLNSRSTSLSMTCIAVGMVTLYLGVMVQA
Binder,binding result [1],binding result [2]
B1,binds,–
"GGGUAAUUUGUUUUACUGGGGGGUUAACCUAACAAGUGCCC (XNA, 2'-fluoro C and U) [DENV-Apt_41]",–,binds
